B1: scFv #7 (scFv)
scFv: SYELTQPPSMSVALGQTAKVTCQGDNLENFYVQWHQQKPGQAPVTVIFQDNKRPSGIPDRFSGSNSGNTATLTISGARTEDEADYYCQSGHSSIGGVFGSGTSLTVLGQPAAAGGGGSGGGGSGGGGSARQVQLQESGPSLVKPSQTLSLTCTVSGFSLTGNSVTWVRQAPGNVPEWLGGISRGGRTYYDTALKSRLSITRDTSKRQVSLSLSSVTTEDTAMYFCARSAYSTLYDYEYAADIYDWGPGLLVTVSSTSGAPVPYPDPLEPRAA
B2: ciB-B9 (VHH)
VHH: TGGGLVQAGGSLRLSCTASGRTSSFYALAWFRQGPGKEREFVAAIGWIDGSTRYTDSAKGRFTISRDAAKNTMYLQMNSLKPEDTAVYSCTARTQYGGSSADPKNYGYWGQGTQVTVSA
B3: ciB-H11 (VHH)
VHH: QVQLVETGGGLVQAGGSLRLSCAGSGRSFSAAVMGWFRQAPGKEREFVAALRQIIGSTHYADSVKGRFTISRDNAKNMLYLDMNSLKPTDTAAYYCTAGPPTMLDVSTDREYDTWGQGTQVTVSS

How the values were obtained:
[1] = molecular target: Botulinum neurotoxin serotype A1 (BoNT/A) holotoxin (Clostridium botulinum, UniProt P0DPI0); test: method not stated
[2] = molecular target: Botulinum neurotoxin serotype B (BoNT/B) holotoxin (Clostridium botulinum, UniProt P10844); test: SPR; immobilised form of BoNT/B not stated

Binder | Kd [1] [nM] | Kd [2] [nM]
B1 | ~1 | 
B2 |  | 23
B3 |  | 0.26

— patent US20250101137A1 (TRUSTEES OF TUFTS COLLEGE, published 2025)
